In test [1] the target is LlSSB C7:EcSSB (L. lactis SSB with its last 7 C-terminal residues replaced by those of EcSSB) (L. lactis) (UniProt Q9CDM9). Description: cell-based or functional assay.
Test [2] addresses EcSSBΔ9 (EcSSB with a 9-amino-acid C-terminal deletion) (E. coli) (UniProt P0AGE0). Description: cell-based or functional assay.
Test [3] deals with L. lactis single-stranded binding protein (LlSSB) (L. lactis) (UniProt Q9CDM9). Description: cell-based or functional assay.
The target of test [4] is PaSSB (Pseudomonas aeruginosa single-stranded binding protein) (Pseudomonas aeruginosa) (UniProt P40947). Description: cell-based or functional assay.
For test [5], the target named is LlSSB C8:EcSSB (L. lactis SSB with its last 8 C-terminal residues replaced by those of EcSSB) (L. lactis) (UniProt Q9CDM9). Description: cell-based or functional assay.
Test [6] concerns the target E. coli single-stranded binding protein (EcSSB) (E. coli) (UniProt P0AGE0). Description: cell-based or functional assay. The settings on record: scale: fold improved over the RecT protein alone.
Test [7] relates to E. coli. Description: Fifteen cycles of MAGE with pool of 15 oligos, editing efficiency by NGS. In kind it is cell-based, Escherichia coli. Particulars: 15 separate mutations, one week. How it is done: E. coli populations expressing either an efficient SSAP (SEQ ID NO: 157), an efficient SSAP/SSB pair (SEQ ID NO: 157/SEQ ID NO: 384), or the widely-used Redβ were taken through fifteen cycles of MAGE and transformed each cycle with a 10 μM pool comprising 15 unique oligos. Editing efficiency at each targeted locus was measured by NGS and averaged (FIG. 3).

Test [8] deals with Agrobacterium tumefaciens. Description: Oligo-recombineering efficiency of SSAP/SSB library members. The test is classed as cell-based. The settings on record: A. tumefaciens, after two rounds of selection. How it is done: A library of the most broadly-acting three (3) SSAPs and twenty five (25) SSBs was cloned into an Agrobacterium tumefaciens (A. tumefaciens) vector (75-member library). The library was selected for efficient genome editing, and oligo-recombineering. Efficiency was measured from the two most frequent members of the library after two rounds of selection. Editing efficiency of close to 1% was measured in SSAP SEQ ID NO: 143/SSB SEQ ID NO: 310. […] A. tumefaciens is quite distantly related to E. coli, L. lactis, and M. smegmatis (FIG. 7).

Test [9] relates to E. coli. Description: Editing efficiency by NGS, non-coding mismatch at a non-essential gene. In kind it is cell-based, Escherichia coli. The settings on record: versus Redβ expressed off wild-type codons. How it is done: Top-performing SSAPs and SSAP/SSB pairs from experiments in E. coli, L. lactis, and M. smegmatis are shown in FIG. 2A, FIG. 2B and FIG. 2C, respectively. Bars in red are the proteins that had previously been reported in the literature. The proteins listed were found after ten rounds of selection for protein variants that enabled the introduction of an oligonucleotide that conferred a genomic edit that provided antibiotic resistance. Unbiased editing efficiency was tested in each case by introducing a non-coding base change at a non-essential gene and measuring the frequency of incorporation via next generation sequencing.
Their recombineering efficiency was tested against Redβ expressed off of its wild-type codons on the same plasmid system used for the SEER selections. […]
The efficiency of each SSAP or SSAP/SSB pair was measured by expressing them off of their host-specific plasmid in the naïve parent strain and running a recombineering cycle with an oligo that confers a 4-nucleotide non-coding mismatch in a non-essential gene. The allele was then amplified by PCR and editing efficiency was measured by next-generation sequencing.
To measure single locus editing, a recombineering cycle was run with an oligo that confers a single base pair non-coding mismatch in a non-essential gene. The allele was then amplified by PCR and editing efficiency was measured by NGS as described above. […]

In test [1], “Redβ single-stranded annealing protein (SSAP) from Enterobacteria phage λ (from UniProt P03698 1-261)” registered an editing rate in L. lactis (fold of Redβ with EcSSB) of 5.9. In addition, the genome editing efficiency in L. lactis (fold lower than Redβ with EcSSB) in test [2] was 44. This molecule registered a genome editing efficiency in L. lactis (fold less than Redβ with EcSSB) in test [3] of 38.5. For the same molecule, in [4], the editing efficiency in C. crescentus (fold over Redβ alone) was found to be 15; the editing efficiency in C. crescentus after expression optimization and evasion of mismatch repair (fold higher than Redβ alone) came out at 112; the editing efficiency in C. crescentus after expression optimization and evasion of mismatch repair (fold over the background level) worked out at 873. The editing rate in L. lactis (fold of Redβ with EcSSB) in test [5] worked out at 2.6. The molecule further returned an editing efficiency in L. lactis, pair against the RecT protein alone in [6] of 483.

Molecule PapRecT returned a genome editing efficiency in L. lactis (fold less than the cognate pair) in [3] of 135. Moreover, in test [4] (scale: fold improved over the RecT protein alone), the editing efficiency in L. lactis, pair against the RecT protein alone worked out at 1170.

B1: SEQ ID NO: 157/SEQ ID NO: 384: efficient SSAP/SSB pair co-expressed in E. coli (protein, listed as Clostridium sordellii)
chain 1: MNQIVKFTDDSGLAVQVTPDDVRRYICENATEKEVGLFLQLCQTQRLNPFVKDAYLVKYGGAPASMITSYQVFNRRACRDANYDGIKSGVVVLRDGDVVHKRGAACYKKAGEELIGGWAEVRFKDGRETAYAEVALDDYSTGKSNWAKMPGVMIEKCAKAAAWRLAFPDTFQGMYAAEEMDQAQQPEQVRAQAEQPVDLQPIRELFKPYCEHFGITPAEGMTAVCGAVGAEGMHSMTEQQARRARAWMEEEMAAPAVEAEYEVVDEGEVF
chain 2: MNHVVLVGRLTKDPELRYIPGTGTAVATFTIAIDRDYAKKDGSRETDFIPVEVMGKSAEFCANYISKGRLVALQGSIRVDNYQNQSGERRTFTKVSARNIQALDSNKNRSDSPYPSQNQSFEPSFEPSFEPTGLDPQGFQAIDDDDIPF
modifications: Collinsella stercoris DSM 13279
notes: efficient SSAP/SSB pair co-expressed in E. coli
B1: in test [7], the “Editing efficiency, averaged over targeted loci” value is listed as roughly 100%.

B2: SSAP SEQ ID NO: 143/SSB SEQ ID NO: 310: co-expressed SSAP/SSB pair (protein, listed as Helicobacter pullorum)
chain 1: MAENEKQALLQEENKSENVVSTVKRTALATNPFSDTDQFNNIFKMAQLISQSDMIPATYKGKPMNCVIALEQANRMGVSPLMVMQNLYVVKGVPSWSGQGCMMIIQGCGKFRDVDYVYSGEKGTDSRSCKVVATRISDGKRIEGTEITMQMVKSEGWISNTKWKNMPEQMLGYRAATFFARMYCPNELNGFATEGEAEDMNHKPQRIEAINVLGDTAHE
chain 2: MFNKVILVGNLTRDVELRYLPSGAALARLNLATNRRYKKQDGTQAEEVCFIDVNLFGRTAEVANQYLKKGSQVLIEGRLVLESWTDNTGAKRTKHSITAESMQMLGQRQSTQEENHDYGAGDYNNYQEYEKPAYTASAAPKAQPVQKEPELPVIDINDDEIPF
modifications: Clostridium sp FS41
notes: co-expressed SSAP/SSB pair
On to B2, for which the Editing efficiency in [8] is on record as roughly 1%.

B3: codon-optimized version of Redβ: Redβ expressed from the codon-optimized gene included in Broad SSAP Library (protein, UniProt P03698 1-261, looked up)
Recombination protein bet: MSTALATLAGKLAERVGMDSVDPQELITTLRQTAFKGDASDAQFIALLIVANQYGLNPWTKEIYAFPDKQNGIVPVVGVDGWSRIINENQQFDGMDFEQDNESCTCRIYRKDRNHPICVTEWMDECRREPFKTREGREITGPWQSHPKRMLRHKAMIQCARLAFGFAGIYDKDEAERIVENTAYTAERQPERDITPVNDETMQEINTLLIALDKTWDDDLLPLCSQIFRRDIRASSELTQAEAVKALGFLKQKAAEQKVAA
modifications: expressed from codon-optimized gene
notes: Redβ expressed from the codon-optimized gene included in Broad SSAP Library
With B3, the “Effect of codon usage on editing efficiency” value in test [9] is reported as “significantly decreased efficiency”.
